Experimental data as given in the supplement of paper PMC10126150.
± gives the standard deviation of the averaged measurements.

What follows are sequences tested on ATP (assay: switch fluorescence ratio, 500 uM ATP over buffer (Cy3 cluster intensity, sum of 5 cycles each) (fold (ratio)); higher = stronger signal-on switching upon ATP binding; sequences stand for … in TCGTCGGCAGCGTCAGATGTGTATAAGAGACAGTTTTTTTTTTTTTTTTTTTTTTTTT…TC). Details: aptamer strand: ATP DNA aptamer (quencher-CACCTGGGGGAGTATTGCGGAGGAAGG + anchor), 100 nM annealed; ATP concentration: 500 uM.
Procedure, shortened: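 The fluorescence ratio divides summed target-cycle Cy3 intensity by summed buffer-cycle Cy3 intensity for each cluster and is averaged per switch-domain sequence. Cy3-labelled switching-strand clusters on a modified Illumina MiSeq flow-cell were annealed to 100 nM quencher-labelled ATP aptamer, then imaged in selection buffer and again after 15 min with 500 uM ATP at 22 °C. Five such cycles were run, with NaOH stripping and re-annealing between them, and clusters outside 100-1000 RFU were excluded.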
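Note: ATP exposure 15 min at 22 °C before imaging.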

Sequence | switch fluorescence ratio
TTTGCCATTT | 1.02 ± 0.033
TATTTGGGGG | 1.01 ± 0.029
TTGTGGGAAT | 1.05 ± 0.077
ATGCGGGATT | 1.01 ± 0.023
TTAAGAAATT | 1.01 ± 0.048
ACGTCGTCGG | 0.964 ± 0.018
AATGCTCGCT | 1.022 ± 0.0061
CCAAAGGGAT | 1.28 ± 0.38
TGCGACCATT | 1.03 ± 0.04
GATGTGATTA | 0.982 ± 0.039
AACGAGTCGT | 0.989 ± 0.029
GCTTGTTTGT | 1.02 ± 0.024
CGGGCTTAAA | 1 ± 0.018
CACGTACTCC | 1.5 ± 0.097
AGGGGATCAA | 0.985 ± 0.015
ATGTTGTCGG | 0.987 ± 0.022
TAGTGGTTAG | 0.991 ± 0.025
AGTGAATTCA | 1.016 ± 0.0062
TGAAGGCAGG | 1.01 ± 0.072
GATTCTAGGG | 0.9918 ± 0.0017
GTGTTTGGGA | 0.997 ± 0.033
ACAGAGGAGC | 1.062 ± 0.006
ACTATGCTTT | 1.021 ± 0.0059
GAAGATATTA | 1 ± 0.011
TGGGGAGGGT | 1.01 ± 0.035

Sequence | switch fluorescence ratio
CACGCGTGGT | 0.996 ± 0.019
GGGGTTGAAA | 0.973 ± 0.083
TATTTCATAT | 1 ± 0.013
AGAAATCGGA | 1.038 ± 0.0056
TGCACAATCG | 1.01 ± 0.1
TAATTGGACT | 1.01 ± 0.013
TTGGTGGGGG | 0.989 ± 0.023
TCTGGGGATG | 0.974 ± 0.072
TGCGATGGTC | 1.18 ± 0.065
TTAATGCTAT | 0.9836 ± 0.0043
CCCCAGGGGT | 2.44 ± 2
ACTTCAGGGA | 1.01 ± 0.024
GTTGAAGCCC | 1.013 ± 0.0071
GGGTAACTGG | 1 ± 0.027
GGGGGGTGCG | 0.999 ± 0.019
ATAGTTGTTT | 1 ± 0.019
GACGTGAAGG | 1.026 ± 0.0055
TTTGGGAGTG | 0.965 ± 0.037
GAGTCTATTG | 1.023 ± 0.0022
TAAGTTGTAA | 0.999 ± 0.019
TTATTAAGTG | 1 ± 0.017
AAATTTCATT | 1 ± 0.041
AACCTCACTC | 1.49 ± 0.13
TTCTTCGGGC | 1.08 ± 0.077
TTTTTTATGC | 0.997 ± 0.018

Sequence | switch fluorescence ratio
AGGCGTGCTT | 0.987 ± 0.032
TTCTAATCGG | 1.006 ± 0.01
CGTGTAATTC | 1.03 ± 0.1
TCGGAGTGGC | 1.2 ± 0.19
GAAGTCGTT | 0.973 ± 0.0057
TTTTTGTAAG | 0.998 ± 0.043
AGGTGATGGT | 0.997 ± 0.023
ATACAGCGA | 1.066 ± 0.01
GTTAGTATTG | 0.998 ± 0.021
AAGTTTATGG | 0.9798 ± 0.0057
AACGCAGCCT | 1.11 ± 0.0027
TTGGAGAAAT | 1.05 ± 0.025
AGCGGGGTCG | 1 ± 0.011
ATGTTTAATC | 0.986 ± 0.023
AAGTTTAATA | 0.943 ± 0.034
CGTGGTGGGG | 0.992 ± 0.015
CGACAGATGT | 1.01 ± 0.018
GGGAGGTTGT | 0.966 ± 0.028
GAGGGGGGGC | 1.01 ± 0.07
GGGACTATCA | 0.982 ± 0.014
TTCAGAATTG | 1.0012 ± 0.00092
CTGGGATATA | 1 ± 0.04
TGGCTGATTT | 1.003 ± 0.0053
CTTGTATGAG | 0.989 ± 0.012
TGCCGCAAAA | 1.82 ± 0.85

Sequence | switch fluorescence ratio
GGTGAGGATG | 0.994 ± 0.018
GCTTACAGGA | 1.01 ± 0.033
TCAGTGAAAC | 0.988 ± 0.021
CAATTTTCTT | 1.02 ± 0.025
GCTGGGTATT | 0.9435 ± 0.0054
TAAAATGAGA | 0.98 ± 0.031
GCAGGTCTGT | 0.9688 ± 0.0037
TTGGGAGGAG | 1.01 ± 0.025
CCCAGGGT | 1.54 ± 0.67
GGCGGGGACC | 0.982 ± 0.025
GGGGTGCTTT | 0.987 ± 0.017
GGCGTGTGCG | 0.98 ± 0.039
GGTGTTTTTA | 1.07 ± 0.067
AAAGGATCGT | 1.01 ± 0.02
GCTAGCGGTC | 1.08 ± 0.02
GGCGGGGTGC | 1.016 ± 0.0073
TGTTTTATGT | 0.989 ± 0.032
TAATTTGTTC | 1 ± 0.026
CGCGTTAGA | 1.04 ± 0.017
CAATATAGGT | 0.967 ± 0.018
GAGGTAGCGC | 0.98 ± 0.01
AGTATGGTAG | 1.0145 ± 0.00092
CATTGAATAC | 1.36 ± 0.061
TTTTTTGCT | 0.996 ± 0.039
CGTTGGGGCG | 0.931 ± 0.035
